From doi:10.1101/2024.05.16.594462v2

Substrate: OC[C@H]1O[C@@H](n2cnc3c(O)ncnc32)[C@H](O)[C@@H]1O
Assay: purified protein
Details: […] hPNP

B1: human purine nucleoside phosphorylase (hPNP) (Homo sapiens) (protein)
chain: MENGYTYEDYKNTAEWLLSHTKHRPQVAIICGSGLGGLTDKLTQAQIFDYGEIPNFPRSTVPGHAGRLVFGFLNGRACVMMQGRFHMYEGYPLWKVTFPVRVFHLLGVDTLVVTNAAGGLNPKFEVGDIMLIRDHINLPGFSGQNPLRGPNDERFGDRFPAMSDAYDRTMRQRALSTWKQMGEQRELQEGTYVMVAGPSFETVAECRVLQKLGADAVGMSTVPEVIVARHCGLRVFGFSLITNKVIMDYESLEKANHEEVLAAGKQAAQKLEQFVSILMASIPLPDKAS
Km: 68.92 ± 4.08 µM
